Key:
[1] = molecular target: blood clotting factor VII (UniProt P08709)
[2] = molecular target: prourokinase (UniProt P00749)

proenzyme form of the factor VII-activating protease, sequence (chain, as listed by the source): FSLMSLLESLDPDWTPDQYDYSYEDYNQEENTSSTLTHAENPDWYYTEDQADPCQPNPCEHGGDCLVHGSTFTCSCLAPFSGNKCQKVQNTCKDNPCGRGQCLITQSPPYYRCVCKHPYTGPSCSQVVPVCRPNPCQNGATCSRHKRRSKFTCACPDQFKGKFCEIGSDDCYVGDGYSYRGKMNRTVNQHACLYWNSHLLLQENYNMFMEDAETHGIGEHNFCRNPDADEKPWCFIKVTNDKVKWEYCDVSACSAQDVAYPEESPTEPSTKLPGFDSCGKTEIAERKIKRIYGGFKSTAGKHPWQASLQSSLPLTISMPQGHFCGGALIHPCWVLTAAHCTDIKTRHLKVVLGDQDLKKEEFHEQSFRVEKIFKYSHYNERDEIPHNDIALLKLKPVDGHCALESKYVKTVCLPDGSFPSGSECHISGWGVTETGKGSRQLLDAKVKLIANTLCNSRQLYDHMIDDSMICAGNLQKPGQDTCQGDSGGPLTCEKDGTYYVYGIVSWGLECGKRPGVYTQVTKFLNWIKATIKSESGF
blood clotting factor VII, sequence (P08709 61-466): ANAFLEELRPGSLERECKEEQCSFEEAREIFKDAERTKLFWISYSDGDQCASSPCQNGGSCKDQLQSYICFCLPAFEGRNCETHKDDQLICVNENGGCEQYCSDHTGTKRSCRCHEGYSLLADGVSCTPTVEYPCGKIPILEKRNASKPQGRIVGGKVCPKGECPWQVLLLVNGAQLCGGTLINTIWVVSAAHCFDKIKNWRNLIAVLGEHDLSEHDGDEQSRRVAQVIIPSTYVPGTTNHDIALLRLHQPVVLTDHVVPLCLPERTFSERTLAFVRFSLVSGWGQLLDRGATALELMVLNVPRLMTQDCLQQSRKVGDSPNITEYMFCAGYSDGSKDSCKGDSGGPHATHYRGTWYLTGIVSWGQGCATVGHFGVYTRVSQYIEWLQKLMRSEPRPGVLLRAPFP

## proenzyme form of the factor VII-activating protease
[1]
  activation of factor VII, with subsequent detection of activated factor VII (activity tests of Example 1): The activity tests (see Example 1) confirmed the nativity of the protein in the sense of the retainment of the biological activities
[2]
  activation of prourokinase, with subsequent detection of urokinase (activity tests of Example 1): The activity tests (see Example 1) confirmed the nativity of the protein in the sense of the retainment of the biological activities

— patent US6677440
